According to the supplement of paper PMC9170038:

Tested on: MS2 coat protein
Assay: apparent KD of MS2 coat protein; designed switch direction (-1 OFF switch, 1 ON switch): -1; higher = weaker reporter binding
Method in brief: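 For each design, the apparent KD is the median over clusters of curves fitted to normalised cluster fluorescence. Clusters held RNA switches with common flanks, transcribed on Illumina chips by stalled E. coli RNA polymerase. These were titrated with SNAP-549-labelled MS2 coat protein, doubling from 0.7 or 1.5 nM to 3 µM, without input, with 200 uM small-molecule ligand, or with an oligonucleotide input.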

[1] = Eterna round: R95, input ligand: FMN 200 uM
[2] = Eterna round: R95, input ligand: microRNA oligo, concentration not stated
[3] = Eterna round: R95, input ligand: none
[4] = input ligand: microRNA oligo, concentration not stated

Row | Sequence | apparent KD of MS2 coat protein [1] [nM] | apparent KD of MS2 coat protein [2] [nM] | apparent KD of MS2 coat protein [3] [nM] | apparent KD of MS2 coat protein (input ligand: FMN 200 uM) [nM] | apparent KD of MS2 coat protein [4] [nM] | apparent KD of MS2 coat protein (input ligand: none) [nM]
1 | CAGUACUACAAGCUAUGGGACAUGAGGAUCACCCAUGUUCGUCUUAUUGAUCUAGGUACGCUGACGUACCUAGAUCU [JL-sv1-2.19 Brourd mod] (puzzle: Sensor v3, turn-off variant 1) | 16.9 | 27.8 | 15.9 | – | – | –
2 | GGUAGAGUGGUAGGAUAUCCGUCUGUUUCAGUCGGAGAAGGACCACAGUCACUGGGUCCAUGUUUCAUGGAGACCUGAUCUACC [pwkr exNG1 F6.9] (Eterna round: R96, puzzle: Exclusion NG 1) | – | – | – | 26.9 | 59.7 | 130
3 | AAUGGGUGUGUGAGGAUAUACGAUGGCAGUUGCCAGUAGAAGGUACAUGAGGAUCACCCAUGUGUCCAAAAGUG [Aquin] (puzzle: Brourd's mod of Exclusion 4) | – | 11.9 | – | – | – | –
4 | AGCUGUGGCCGAGGAUAUCCAACCUUAAAUACCGACGUAUAGUCGGACAUGAGGAUCACCCAUGUGGAGAAGGCGGUCUCAGCA [Eli eng2 - 039] (Eterna round: R96, puzzle: Exclusion NG 2) | – | – | – | 62.5 | 28 | 47.1
5 | UUCAUGUGAGGAUAUAGUACUCUUUCUAUUAUUAUUGAGUAUUAGAAGGCACAUGAGGAUCACCCAUGUAGUAC [Ex4 - 3 - 41] (puzzle: Exclusion 4) | – | 28.1 | – | – | – | –
6 | CCUGCGGACAAAGGAUAUUGCGGUGGCCGGCUCGGCGUACCGAGCCUACAUGAGGAUCACCCAUGUAAGAAGGUUGUCGUUGGU [JL ViennaUCT Qudice mod] (Eterna round: R96, puzzle: Exclusion NG 2) | – | – | – | 186 | 26.9 | 33.5
7 | CUGGUCCGAGGAUAUAUUAAGUGAUACAUGAGGAUCACCCAUGUAAUUUAAUGGAAAUAAAUAGAAGGCGGACUAG [Mat - Exclusion 5 - JL mod - D51] (puzzle: Exclusion 5) | 30 | 65.3 | 62.5 | – | – | –
8 | GAGUAGAGAGGAUAUGCAAUGAUCAUCGUACGAUGAGGCUGACAUGAGGAUCACCCAUGUAGAAGGCUCUGGUC [EX2 #20] (Eterna round: R97, puzzle: Exclusion 2) | – | – | – | 22.5 | – | 23.3
9 | GAAAACCUAGGAUAUACAUGAGGAUCACCCAUGUGAAAACCUCUUAAAACUUAACAAUGUAGAAGGAGGAAAAC [Azaqure] (puzzle: Exclusion 3) | 39.9 | 43.2 | 38.3 | – | – | –
10 | ACAACUGUAGGAUAUACUUUCUGGGUAAGCCAUUAUACUGGACAUGAGGAUCACCCAUGUAGAAGGACAGAAAG [Eternabot (Original) Solution 36] (Eterna round: R97, puzzle: Exclusion 2) | – | – | – | 29.6 | – | 35.1
11 | UUGCCUAAUGUUAGGAUAUGCGACGGGUGACCGUUGCAGAAGGAACAUGAGGAUCACCCAUGUUUAAUAAAAUC [JL-BMX4-4.43 ViennaUCT mod] (Eterna round: R97, puzzle: Brourd's mod of Exclusion 4) | – | – | – | 69.3 | – | 14.9
12 | AGCUGUGGCCGAGGAUAUCUGUUCCAUAUAACCGAAAUAUAAUCGGACAUGAGGAUCACCCAUGUAGAGAAGGCGGUCUCAGCA [Eli eng2 - 100] (Eterna round: R96, puzzle: Exclusion NG 2) | – | – | – | – | 18.8 | –
13 | AUUAUGUAAGGAUAUCUUACAUGUGACUUCGGUCACUGUCAAGAGAAGGUACAUGAGGAUCACCCAUGUAUGAC [Ex4-3: 49] (puzzle: Exclusion 4) | – | 14.2 | – | – | – | –
14 | AUAAUGUGAGGAUAUCAGUCGUACAGCCUCGGCUGUACGACUGAGAAGGCACAUGAGGAUCACCCAUGUGGUCA [E4/5-A2] (Eterna round: R97, puzzle: Exclusion 4) | – | – | – | 156 | – | 590
15 | GAAAAGGUAGGAUAUACGAAAAAAAAUGGUAGAAAAAAAACACAUGAGGAUCACCCAUGUAGAAGGACCAAAAG [salish99_ex2_r3_071] (puzzle: Exclusion 2) | 23 | 24.6 | 17.9 | – | – | –
16 | AGGUGUAGAGGAUAUUUAUACUCCCACAUGAGGAUCACCCAUGUCCUGGUCACCAAGGACGGAGAAGGCUACACCA [Omei Ex5 D23] (Eterna round: R97, puzzle: Exclusion 5) | – | – | – | 48.5 | – | 41.8
17 | ACUUGUCAUGAGGAUAUGCGACGCAACGGUGGAGCAGAAGGCGUGACAUGAGGAUCACCCAUGUCAGUUCGCGA [eternacac ex6r4 sub32] (Eterna round: R97, puzzle: Exclusion 6) | – | – | – | 43.4 | – | 16.1
18 | AAGAAACAUGAGGAUCACCCAUGUGAGGAUAUGGCCCGCCCGGCGUGAGCUAAAUAAAUCAGAAGGCACAAAGG [salish99_ex1_r4_010] (Eterna round: R97, puzzle: Exclusion 1) | – | – | – | 24.6 | – | 42.2
19 | AGCUGUGGCCGAGGAUAUCACGAACCAUGGAAAACCAUGGAAACUCUACAUGAGGAUCACCCAUGUGAGAAGGCGGUCUCAGCA [Eli eng2 - 022] (Eterna round: R96, puzzle: Exclusion NG 2) | – | – | – | 87.7 | 21.6 | 35.2
20 | AUAUUGCGAGGAUAUACAUGAGGAUCACCCAUGUGGUAGUAGAUACGGUAGGGCUAGUGUAGAAGGUGUUAUGA [EX3 #14] (Eterna round: R97, puzzle: Exclusion 3) | – | – | – | 80.2 | – | 172
21 | AAUAAUGAGUAGGAUAUCACUAGCGAUAGCUAGUGAGAAGGACUCACAUGAGGAUCACCCAUGUGUUCCAAUAA [Mod3 Ex6/6-A4 by Brourd] (Eterna round: R97, puzzle: Exclusion 6) | – | – | – | 195 | – | 50.8
22 | UUAACAUGCUGGUGAUCAUACAUGAGGAUCACCCAUGUAACAAGCUUUUUGCUCGUCUUAAUUUAAUUGAUUACUAG [Stov1/8-A1] (Eterna round: R97, puzzle: Sensor, turn-off variant 1) | – | – | – | 120 | – | 134
23 | AAAAAGAGAGGAUAUACAACAAAACAAAACAAAACAAACACACAUGAGGAUCACCCAUGUAGAAGGCUCGAAAA [Exclusion 2 #2] (puzzle: Exclusion 2) | 25.1 | 16.5 | 19.3 | – | – | –
24 | GCGGAGAUCGUAUGAUAAUACAUGAGGAUCACCCAUGUGUAUACGAUGCAUGGUACCCGCCGCUUUGCUUGUCUUGC [Eternabot (L1) Solution 30] (Eterna round: R97, puzzle: Sensor, turn-off variant 1) | – | – | – | 16.4 | – | 16.7
25 | GCGAAUAACGAGGAUAUCGUAUCGGAAACGAUACGAGAAGGUGUAACAUGAGGAUCACCCAUGUUCCUCAACGC [Fiskers Ex 6 - 7] (puzzle: Exclusion 6) | – | 33.1 | – | – | – | –
26 | AUUUAAUUUAAUAAGAUCACAUGAGGAUCACCCAUGUUAUAAUAGGAUAUCAGCUCGUUUAGAGCUGAGAAGGAUUAUAACAUG [ExNG3/9-A2] (Eterna round: R96, puzzle: Exclusion NG 3) | – | – | – | 31.8 | 20.8 | 7.21
